PMC7845591

Biological target: endothelial protein C receptor (EPCR), residues 16 to 210, biotinylated on the BAP tag (human) (UniProt Q9UNN8)
Experiment: SPR; Biacore T200; biotinylated EPCR captured on a CAP chip (150 RU); twofold dilution series of CIDRα domain or synthetic binder injected 240 s, dissociation 300 s; 20 mM HEPES pH 7.5, 150 mM NaCl, 0.005% Tween 20, 25°C; global fit to a 1:1 model

UniProt Q9UNN8, sequence (Q9UNN8 16-210): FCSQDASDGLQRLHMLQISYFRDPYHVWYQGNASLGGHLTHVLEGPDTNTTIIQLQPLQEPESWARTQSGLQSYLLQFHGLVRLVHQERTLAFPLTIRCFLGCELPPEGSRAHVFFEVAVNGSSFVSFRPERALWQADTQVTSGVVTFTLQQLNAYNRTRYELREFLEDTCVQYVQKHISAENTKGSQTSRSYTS

With “HB3var03 CIDRα1.4 domain D576A K642A double mutant (domain or fragment)” the Kd was 220 nM.
